Assay results: publication PMC7755911 (Scientific Reports, 2020)

B1: NIH-CoVnb-112 (VHH)
VHH: DVQLQESGGGLVQPGGSLRLSCAASGLTLDYYAIGWFRQAPGKEREGVSCISSSDGSTYYADSVKGRFTTSRDNAKNTVYLQMNSLKPEDTAVYYCAAVPSTYYSGTYYYTCHPGGMDYWGKGTQVTVSS
notes: also called lead nanobody candidate; anti-SARS-CoV-2 RBD nanobody; source: E. coli BL21 (DE3), periplasm by osmotic shock, purified (HisTrap, Superdex 75)
B2: VHH72 (VHH)
VHH: QVQLQESGGGLVQAGGSLRLSCAASGRTFSEYAMGWFRQAPGKEREFVATISWSGGSTYYTDSVKGRFTISRDNAKNTVYLQMNSLKPDDTAVYYCAAAGLGTVVSEWDYDYDYWGQGTQVTVSS

How the values were obtained:
Details in all cases: both partners purified
[1] = target: SARS-CoV-2 Receptor Binding Domain (RBD) (SARS-CoV-2, UniProt P0DTC2); assay: SPR
[2] = target: SARS-CoV-2 RBD (cross-reactivity experiments) (SARS-CoV-2, UniProt P0DTC2); assay: ELISA
[3] = target: T1, Horse radish peroxidase conjugated RBD (GenScript SARS-CoV-2 Neutralization Antibody Detection Kit) (SARS-CoV-2, UniProt P0DTC2); assay: ELISA
T1 construct: source: bought: GenScript (kit L00847)

[4] = target: Biotinylated SARS-CoV-2 S protein RBD with a C-terminal AviTag (SARS-CoV-2, canonical (Wuhan-Hu-1) …, UniProt P0DTC2, biotinylated); assay: BLI

| Binder | Kd [1] [nM] | binding result [2] | binding result [3] | binding result [4] |
| --- | --- | --- | --- | --- |
| B1 | 2.1 | binds | binds |  |
| B2 |  |  |  | binds |
